The record followed here is the nanobody polyreactivity screen of Harvey et al. (2022).

The data set is described as follows: yeast display, Sf9 membrane polyspecificity reagent, FACS + sequencing; frameworks hold sequencing errors. The method, boiled down: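 Polyreactivity labels are assigned by the sorting gate from which each nanobody was recovered. The gates were low and high (top ~1%), set on anti-HA fluorescence for expression and streptavidin fluorescence for reagent binding. Before sorting, galactose-induced (36–48 hours) yeast display cells were stained for 1 hour at 4 °C with 10% biotinylated, detergent-solubilized Sf9 membrane reagent.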
As to “KVNIEESGGGLVQAGGSLRLSCAAYGSIFRYYAMGRYRQATGKERELVASISSSGGSTYYADSEKGRFTISRDNAKNTVYLQMNSLKPEDTAVYYCAAVRHRNYGYWGQGTQVTVSS”, the “polyreactivity (PSR sort gate)” value is reported as “high polyreactivity”. In the case of “KVQIVESVGGLVQAGASLRLSCAASGSIFRYYPMGWYRQAPGKERELDAAISSSGTTYYADSVKGRFTISRDNAKNTVYLQMNRLKPEDCAVYYCAAVWTYWYYGDDYWGLGTQVTVSS”, the “polyreactivity (PSR sort gate)” value is reported as “low polyreactivity”. The entry for “KVQLVESGGGLVQAGGRLRLSCAPSGSIFGTNTMGWYRQAPGTERELVAAIRLSDSSTYYADSVKGRFTISRDNAKNTVYLQMKSLKPEDTAVYDCAVDYRAYHYYRYDYWGQGTQVTVSS” is “low polyreactivity”; for “KVQLVESGGGLVQAGGSLRISCAASGFIFVDYAMGWYRQAPGKERELVAAISSSGSTTYADSVKGRFTISRDNAKNIVYLQMNSLKPEDTAVYYCNADAEVVPGEYDYWGQGTQVTVSS” it is “low polyreactivity”. The entry for “KVQLVESGGGLVQAGGSLRLSCAASGIIFFPYAMAWYRQAPGKERELVASINISDSSTYYADSVKGRFTISRDNAKKTVYLQMNSLKPEDTAVYYGAADNRGDSWYWDGYWGQGTQVTVSS” is “low polyreactivity”; for “KVQLVESGGGLVQAGGSLRLSCAASGLTFSVYAMGWYRQAPGKERELVAAITNSGGSTYYADSVKGRFTISRDNAKNTVYLQMNSLIPEDTAVYYCAARYSTYYSGPPGLHLDYYYWGQGTQVTVSS” it is “low polyreactivity”; for “KVQLVESGGGLVQAGGSLRLSCAASGRIFKYYAMGWYRQAPGKEMELVARISRSSGNTYYADSVKGRFTISRDNAKKTVYLQMNSLIPEDTAVYYCATVPHYNGFNYWGQGTQVTVSS” it is “high polyreactivity”. The entry for “KVQLVESGGGLVQAGGSLRLSCAASGRIFLPYAMGWYRQAPGKEREFVAAITWGAGTTYYADSVKGRFTISRDNAKNTVYLQMNSLKPEDTAVYYCAAEYRVLSWTYGYWGQGTQVTVSS” is “high polyreactivity”; for “KVQLVESGGGLVQAGGSLRLSCAASGSIFIGYAMGCYRQAPGKERELVAAISYRGGSTYYADSVKGRFTISRDNAKNTVYLQMNSLKPEDTAVYYCATVLPVQQTRLGYSSRYYYWGQGTQVTVSS” it is “high polyreactivity”. Take “KVQLVESGGGLVQAGGSLRLSCAASGSTFAGNALGWYRKAPGKERELVAAIDSSTGSTYYADSVKGRFTISRDNAKNTVYLQMNSLKPEDTAVYYCNKTSLLVKLDYWGPGTQVTVSS”: the “polyreactivity (PSR sort gate)” value is “low polyreactivity”.

For the sequence “KVQLVESGGGLVQAGGSLRLSCAPSGRIFQPNVMGWYRQPPGKVRELAAAIRSVSSTYYADSVKGRFTISRDNAKNSVYLQMNSLKPEDTAVYYCAARLFLRGYTRGNYLGQGTQVTVSS”, the “polyreactivity (PSR sort gate)” value is “high polyreactivity”. Take “KVQLVESGGSLVQAGGSLRLSSAASGRIITGYAMGWYRQAPGKEWELVAAITGSCVSTYYADSVKGRFTISRDNSKNTVYLQMNSLKPEDTAVYYCAARRYYGYVHWGQGTQVTVSS”: the “polyreactivity (PSR sort gate)” value is recorded as “high polyreactivity”. As to “KVQLVESGRALVQAGGSLRLSCAASGSTFGNNAMGWNRPAPGKERELVATIDDTTVSTNYADSVKGRFTISRDNAKNTVYLQMTCLKPEDTAVYYCSADDVDGSPYDYWGQGTQGTVSS”, the “polyreactivity (PSR sort gate)” value is “low polyreactivity”.

For the sequence “KVQLVESGVGLDQAGGSHRLSCDASGYIFDDYAMGWYRKAPGKERELVAAISSSGTSTNYADSVKVRFTISRDNAKNTVYLQMNSLKPEDTAVYYCAARSAILKSGYLMDYWGLGTQVTVSS”, the “polyreactivity (PSR sort gate)” value is “low polyreactivity”. As to “KVQLVESVGGLVQAGGSLRLSCAASGSIFRGNAIGWYRQAPGKERQLVAAISNSSGTTYYADSVKGRFTISRDNAKNTVYLQMNSLKPEDTAVYYCATRYYRGYVRGTHHVGGYYYRGQGTQVTVSS”, the “polyreactivity (PSR sort gate)” value is listed as “low polyreactivity”.

Turning to “KVQLVQSGGGLVQAGGILRLSCAASGRIFSSYAMGWYSQAPGKERELVAVISQRGGSTSYADSVKGRFTISRDNAKNTVYLQMNSLKPEDTAVYYCARRPGKGNNYWGQGTQVTVSS”, the “polyreactivity (PSR sort gate)” value is on record as “high polyreactivity”. “LVHLQESGGGMVQAGGSLRLSGAAIGYISWADYMGWYRQAPGKERELVAGIGYGSTTYYADSVKGRFTISRDNAKNTAYLQMNSLKPEDTGVYYCAVGLDRDTAYKYWGQGTQVTVSS”: the “polyreactivity (PSR sort gate)” value was “low polyreactivity”. The entry for “LVHLVESGGGLVQAGGSLRLSCAASGITFTGYAMGWYRQAPGKERELVAAITWSSGSTYYADSVKGRFTISRDNAKNTVYLQMNSLKPEDTAVYYCNAGYWYDGPDYIPEYDYWGQGTQVTVSS” is “low polyreactivity”; for “LVQHQESGGGLVQAGGSLRLSCAASGTIFLRYYMGWYRQAPGKQREFVAAINIGATANYADSLKGRFTISRDNAKNTVYLQMKSLYPQDTAVYYCAVYYPIYRQHDYWGQGSQVTVSS” it is “low polyreactivity”. The entry for “LVQHVESGGGIVQAGGSLRLICAASGFPYNYYAMGWYRQAPGTEREFVAAISSGGGSTYYAYSVKGRFTISRDNAKNTVYLQMNSLKPEDTSGYYCAADRYSHYGYWGQATQVTVSS” is “low polyreactivity”; for “LVQHVESGGGLVKAGGSLRLICAASGRTFLRNAMGWYRQAPGKERELVATITRGGSTYYADSVKGRFTISRDNAKNTVYLEKTSLKPEDTAVYYCSKDFSGGFRRPDYGYWGQGPQVTVSS” it is “low polyreactivity”; for “LVQLEDSGGGLVQGGGSLRLSCAASGRIFSANAMGCYRQATGKERELVASISTGGGRTYYADSVKGRFTISRDNAKNTVYLQMISLKPEDTAVYYCNAILRPFRVRGTYGTYGYDYWGQGTQVTVSS” it is “high polyreactivity”. The same measure for “LVQLQECGGGLVQAGGSLRLSCAASGNIFDADIMGWYRQAPCKERELVASVTDGGSTNYADSVKGRFTISRDNAKNTVYLQMNSLKPEDTAVYYCEAIVYPDILTYFDYDYDYFYWGQGTQVTVGS”: “low polyreactivity”. With “LVQLQESGGGLVQAGGSLRLSCAASGTISPGGYMGWYRQAPGKERELVASINVGGSTNYADSVKGRFTISRDNAKNTVYLQMNSLKQEDNAVYYCAVWGRNRLQLSYWGQGTQVTVSS”, the “polyreactivity (PSR sort gate)” value is “low polyreactivity”. For the sequence “LVQLVESGGALVQAGGSLRLSCAASGLIFYDYAMGWYRQAPGNDRELVAAISKGGGSTYYADSVKGRFTISRDYAKNSVYLQMNSLNTEDTAVYYGAASTSHTTDTRYDYWGQGTQVTVSS”, the “polyreactivity (PSR sort gate)” value is given as “low polyreactivity”. Turning to “LVQLVESGGGLVQAGGSLRLSCAASGFSFTSYTMGWYRQAPWKERELVAGISTNGGTTYYADSVKGRFTISRDNAKNTVYLQMNSLKPEDTAVYYCNAKRKYGRFPKKYYYWGQGTQVTVSS”, the “polyreactivity (PSR sort gate)” value is reported as “high polyreactivity”. On to “LVQLVESGGGLVQAGGSLRLSCAASGIIFRDNAMGWYRQAPGKERELVAAIDSSGGTTYADSVMGRFTISRDNAKNTVYLQMNSLKPEDTAVFYCATEVYWTVSYYGYDYYGGNYYYWGQGTQVTVSS”, for which the “polyreactivity (PSR sort gate)” value was “low polyreactivity”. The entry for “LVQLVESGGGLVQAGGSLRLSCAASGNIFVSYAMGWYRQAPGKERELVAAISKSGGSTYYADSVKGRFTISRDNAKNTVYLQMNSLKPEDTAVYDCAARWYNRVKYQKFNYWGQGTQVTVSS” is “high polyreactivity”; for “LVQLVESGGGLVQAGGSLRLSSAASGLIFGYNAKGWYRQAPGKERELVAASSWSGGRTYYADSVKGRFTISRDNAKNTVYLHMNILKPEDTAVYYCAAVVRHSYFRDDHWGQGTQVTVSS” it is “high polyreactivity”; for “LVQLVQSGGGLVQAGGTLRISSAASGSTLDWYAMGWYRQAPGKERELVAAITSGGSTYYADSVKGRFTISRDNAKNTVYLQMNSLKPEDTAVYYCAAEYYTWYYDIYDYWGQGTQVTVSS” it is “high polyreactivity”. Turning to “LVQVVESGGGLVQAGGSLRLSCAASGIFSRYARGWYRQAPGKERELVAAISNGGRTYYADSVKGRFTSARDNAKNTVYLQMNSLNPEDTAVYYCNKVRSPWYESWGQGTQVTVSS”, the “polyreactivity (PSR sort gate)” value is reported as “high polyreactivity”.

“PLQLVESGGGLGQAGGSLRLSCAASGSTFGHNAMGWYRPAPGKERELVAAISISGGRTYYADSVKGRFTISRDNAKNTVYLQMISRKPEDTAVYYCAAEVWYVGDNYDYWGQGTQVTLSS”: the “polyreactivity (PSR sort gate)” value was “high polyreactivity”.

Turning to “PVQIVESGGGLVQAGGRLRLSCAASGSILVPYAMGWSRQAPGKERELVADISIRTGSTYYADSVKGRFTISRDNAKNTVYLQMYSLKPEETAVYYCNAAHRKPYTGLYYWGQGTQVTVSS”, the “polyreactivity (PSR sort gate)” value is on record as “high polyreactivity”. Take “PVQLQESGGGLVQAGGSLRLSCAASGNIFDADIMGWYRQAPGKESELVACIADGGSTNYAESVKGRFTISRDNAKNTVYLQMNRLKPEDTAVYYCAAIAYPDIPTCFDYDSDYFFRGQGTQVTVSS”: the “polyreactivity (PSR sort gate)” value is given as “low polyreactivity”. The same measure for “PVQLVESGGGLDQAGGSLRLTCAASGSIFYYNAKGWYRQSPGKERELVAAISSDGGTYYADSVKARFTISRDNAKKTVYLQMNSLKPEDTAVYYCAASQPSTYDYWGQGTQLTVSS”: “high polyreactivity”; for “PVQLVESGGGLVHAGGSLRLSCAASGLTFRYYAMGLYRQAPGKERELVASISWSGASTYYADSVKGRFTISRDNAKNTVYLQMNSLKPEDTEVYYCNAGYYGSYDYWGQGTQVTVSS”: “high polyreactivity”; for “PVQLVESGGGLVPGGGSLRLSCAASGRIFNAYARGWYRQAPGKERELVAAISSRGGSTYYADSVKGRCTISRDNAKNSVYLQKNSLPPEDTAVYYCAAGIYTATGYGYWGQGTQVTVSS”: “high polyreactivity”. The entry for “PVQLVESGGGLVQAGGSLRLSCAACGSIIAGYAMGWYRQAPGKERELVAAISWSGGGTYYADSVKGRFTISRDNAKNTVYLQMNSLKPEDTAVYYCNAYGYRHRGNGYWGQGTQVTVSS” is “high polyreactivity”; for “PVQLVESGGGLVQAGGSLRLSCAASGFTFPNYAMGWYRQAPGKERELVAVITYSGGSTYYADTVKGRFTISRDNAKNTVYLQMNRLKPEDTAVYYCNARYPGSWYFGQYGGYDYGYWGQGTQVTVSS” it is “low polyreactivity”. The same measure for “PVQLVESGGGLVQAGGSLRLSCAASGFTFRPYAMGWYRPAPGTERELVAAITSGDSTNYADSVKGRFTISRDNAKKTVYLQMNSLKPEDTAVYYCAADSTGRPSVSYDYWGQGTQVTVSS”: “low polyreactivity”.

Turning to “PVQLVESGGGLVQAGGSLRLSCAASGFTFTRYVMGWYRQAPGKERELVAAISGSGGSTNYADSVKGRFTISRDNAKNTVSLQMISLKPEDTAVYYCADRFVGSRYRFDYWGQGTQVTVSS”, the “polyreactivity (PSR sort gate)” value is “high polyreactivity”.
